Measured values reported in article PMC9759531, “USP5-Beclin 1 axis overrides p53-dependent senescence and drives Kras-induced tumorigenicity” (Nature Communications, 2022).

Biological target: the molecule itself
Assay: SDS-PAGE without DTT (non-reducing) and western blot; purified recombinant His-USP5 or His-USP5^C195A in PBS treated with H2O2 for 10 min; SDS-PAGE with or without DTT (Fig. 5g, Supplementary Fig. S5e); western blot of H2O2-treated protein (Fig. 5k)

B1: His-USP5 (purified recombinant) (enzyme, human, UniProt P45974 1-858, looked up)
chain: MAELSEEALLSVLPTIRVPKAGDRVHKDECAFSFDTPESEGGLYICMNTFLGFGKQYVERHFNKTGQRVYLHLRRTRRPKEEDPATGTGDPPRKKPTRLAIGVEGGFDLSEEKFELDEDVKIVILPDYLEIARDGLGGLPDIVRDRVTSAVEALLSADSASRKQEVQAWDGEVRQVSKHAFSLKQLDNPARIPPCGWKCSKCDMRENLWLNLTDGSILCGRRYFDGSGGNNHAVEHYRETGYPLAVKLGTITPDGADVYSYDEDDMVLDPSLAEHLSHFGIDMLKMQKTDKTMTELEIDMNQRIGEWELIQESGVPLKPLFGPGYTGIRNLGNSCYLNSVVQVLFSIPDFQRKYVDKLEKIFQNAPTDPTQDFSTQVAKLGHGLLSGEYSKPVPESGDGERVPEQKEVQDGIAPRMFKALIGKGHPEFSTNRQQDAQEFFLHLINMVERNCRSSENPNEVFRFLVEEKIKCLATEKVKYTQRVDYIMQLPVPMDAALNKEELLEYEEKKRQAEEEKMALPELVRAQVPFSSCLEAYGAPEQVDDFWSTALQAKSVAVKTTRFASFPDYLVIQIKKFTFGLDWVPKKLDVSIEMPEELDISQLRGTGLQPGEEELPDIAPPLVTPDEPKGSLGFYGNEDEDSFCSPHFSSPTSPMLDESVIIQLVEMGFPMDACRKAVYYTGNSGAEAAMNWVMSHMDDPDFANPLILPGSSGPGSTSAAADPPPEDCVTTIVSMGFSRDQALKALRATNNSLERAVDWIFSHIDDLDAEAAMDISEGRSAADSISESVPVGPKVRDGPGKYQLFAFISHMGTSTMCGHYVCHIKKEGRWVIYNDQKVCASEKPPKDLGYIYFYQRVAS
notes: USP5; Treated with H2O2 before the dimerisation assays; also called recombinant USP5; WT USP5; source: E. coli BL21(DE3), purified (HisTrap HP, Superdex 200 increase)
- stoichiometry N: 2
